Measured values: US20230226151A1

Molecular target: Mouse FGFR4/β-klotho complex co-expressed in L6 cells (mouse) (UniProt Q03142)
Assay: cell-based or functional assay

Mouse FGFR4/β-klotho complex co-expressed in L6 cells (mouse), sequence (Q03142 17-799, chain 1 of 2): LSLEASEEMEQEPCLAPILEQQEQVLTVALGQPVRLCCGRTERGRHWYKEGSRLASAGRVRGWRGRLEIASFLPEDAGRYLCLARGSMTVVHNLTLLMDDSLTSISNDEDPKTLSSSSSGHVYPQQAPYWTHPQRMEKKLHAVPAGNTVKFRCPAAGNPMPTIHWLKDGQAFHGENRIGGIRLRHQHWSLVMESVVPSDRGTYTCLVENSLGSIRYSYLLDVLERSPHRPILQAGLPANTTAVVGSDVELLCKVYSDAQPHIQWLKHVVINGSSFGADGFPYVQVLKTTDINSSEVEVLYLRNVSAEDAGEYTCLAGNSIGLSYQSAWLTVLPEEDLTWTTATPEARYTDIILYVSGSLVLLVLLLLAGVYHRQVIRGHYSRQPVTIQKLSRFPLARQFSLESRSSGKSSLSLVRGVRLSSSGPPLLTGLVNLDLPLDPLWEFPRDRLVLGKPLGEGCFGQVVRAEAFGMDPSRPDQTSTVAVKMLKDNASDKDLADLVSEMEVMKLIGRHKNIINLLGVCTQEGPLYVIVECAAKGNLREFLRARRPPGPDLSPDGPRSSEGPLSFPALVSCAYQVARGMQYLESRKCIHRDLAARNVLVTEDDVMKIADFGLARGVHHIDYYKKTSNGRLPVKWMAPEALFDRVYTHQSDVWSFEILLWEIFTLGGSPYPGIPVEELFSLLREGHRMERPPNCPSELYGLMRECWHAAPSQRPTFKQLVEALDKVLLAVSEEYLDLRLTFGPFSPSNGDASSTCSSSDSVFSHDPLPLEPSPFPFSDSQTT
Mouse FGFR4/β-klotho complex co-expressed in L6 cells (mouse), sequence (Q99N32 whole entry, chain 2 of 2, further chain): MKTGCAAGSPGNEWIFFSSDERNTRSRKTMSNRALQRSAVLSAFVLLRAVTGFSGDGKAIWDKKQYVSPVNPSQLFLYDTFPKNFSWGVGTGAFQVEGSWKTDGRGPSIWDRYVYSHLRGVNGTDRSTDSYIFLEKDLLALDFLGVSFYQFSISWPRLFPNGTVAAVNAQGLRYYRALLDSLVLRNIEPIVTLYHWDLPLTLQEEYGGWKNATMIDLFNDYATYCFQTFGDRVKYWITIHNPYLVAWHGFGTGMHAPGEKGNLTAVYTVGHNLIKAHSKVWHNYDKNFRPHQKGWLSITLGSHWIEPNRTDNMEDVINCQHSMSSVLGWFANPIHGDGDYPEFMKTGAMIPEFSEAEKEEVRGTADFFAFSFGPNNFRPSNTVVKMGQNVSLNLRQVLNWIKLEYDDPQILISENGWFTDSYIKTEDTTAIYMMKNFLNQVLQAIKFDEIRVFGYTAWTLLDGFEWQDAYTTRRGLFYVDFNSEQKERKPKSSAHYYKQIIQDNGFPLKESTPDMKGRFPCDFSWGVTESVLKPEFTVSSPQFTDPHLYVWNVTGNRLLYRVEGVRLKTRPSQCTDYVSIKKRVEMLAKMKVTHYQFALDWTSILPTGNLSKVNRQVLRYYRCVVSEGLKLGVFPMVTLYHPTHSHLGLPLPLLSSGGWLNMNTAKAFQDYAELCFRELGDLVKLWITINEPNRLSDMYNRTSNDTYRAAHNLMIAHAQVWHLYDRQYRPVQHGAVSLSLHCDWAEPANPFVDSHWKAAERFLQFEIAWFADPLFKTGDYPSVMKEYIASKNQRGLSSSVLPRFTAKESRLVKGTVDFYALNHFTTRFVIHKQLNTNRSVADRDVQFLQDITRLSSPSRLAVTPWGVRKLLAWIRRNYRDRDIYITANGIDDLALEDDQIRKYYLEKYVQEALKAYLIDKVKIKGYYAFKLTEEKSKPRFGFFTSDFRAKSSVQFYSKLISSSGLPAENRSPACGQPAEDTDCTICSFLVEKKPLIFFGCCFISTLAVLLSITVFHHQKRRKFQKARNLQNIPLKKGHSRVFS

Question: What does the source list for “FGF19 (wild type human fibroblast growth factor 19) (from UniProt O95750 23-216) (ligand)”?
Answer: EC50 (pM), ELK1 luciferase reporter in L6 cells: 52.5 pM; Emax (fold potentiation), ELK1 luciferase reporter in L6 cells (fold potentiation): 1.82
